From patent US20200002425A1

Tests used:
TGFβ2 = TGFβ2 (UniProt P61812); assay: SPR, binder immobilized by Fc capture, TGFβ2 as analyte, OneStep kinetic analysis on Pioneer FE (Fortebio)
TGFβ1 (human) = TGFβ1 (human) (UniProt P01137); assay: SPR, binder immobilized by Fc capture, TGFβ1 as analyte, OneStep kinetic analysis on Pioneer FE (Fortebio)
[1] = molecular target: human PD-L1 expressed on cells (H441 lung tumor cells; MDA-MB-231 cells; artificial antigen presenting cells) (human) (UniProt Q9NZQ7); assay: cell-based or functional assay
human PD-L1 expressed on cells (H441 lung tumor cells; MDA-MB-231 cells; artificial antigen presenting cells) (human), sequence (Q9NZQ7 19-290): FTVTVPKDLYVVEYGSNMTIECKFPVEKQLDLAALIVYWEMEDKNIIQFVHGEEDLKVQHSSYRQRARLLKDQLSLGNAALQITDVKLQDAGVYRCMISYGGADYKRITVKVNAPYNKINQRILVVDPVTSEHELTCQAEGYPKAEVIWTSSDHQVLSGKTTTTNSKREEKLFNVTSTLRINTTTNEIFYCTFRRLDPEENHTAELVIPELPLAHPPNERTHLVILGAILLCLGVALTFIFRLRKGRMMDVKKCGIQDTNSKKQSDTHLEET

[2] = molecular target: PD-L1 (soluble analyte in the SPR assay) (UniProt Q9NZQ7); assay: SPR, binder immobilized by Fc capture, PD-L1 as analyte, OneStep kinetic analysis on Pioneer FE (Fortebio)
PD-L1 (soluble analyte in the SPR assay), sequence (Q9NZQ7 19-238 limits assumed): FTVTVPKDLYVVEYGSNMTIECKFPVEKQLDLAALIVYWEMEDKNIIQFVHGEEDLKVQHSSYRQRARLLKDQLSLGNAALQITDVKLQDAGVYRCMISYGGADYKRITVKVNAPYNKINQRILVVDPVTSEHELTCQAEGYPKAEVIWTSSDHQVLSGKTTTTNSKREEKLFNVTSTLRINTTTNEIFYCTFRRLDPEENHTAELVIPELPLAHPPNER

[3] = molecular target: human PD-L1 expressed on cells (H441 lung tumor cells; MDA-MB-231 cells; artificial antigen presenting cells) (human) (UniProt Q9NZQ7); assay: flow cytometry on PD-L1+ H441 cells, APC anti-human IgG Fc detection; the table has no unit, pM is from the graph's axis Concentration(pM)

TGFβ2, sequence (P61812 303-414 limits assumed): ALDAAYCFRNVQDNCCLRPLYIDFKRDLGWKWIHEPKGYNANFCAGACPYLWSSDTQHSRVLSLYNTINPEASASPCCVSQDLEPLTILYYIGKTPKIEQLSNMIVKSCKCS
TGFβ1 (human), sequence (P01137 279-390 limits assumed): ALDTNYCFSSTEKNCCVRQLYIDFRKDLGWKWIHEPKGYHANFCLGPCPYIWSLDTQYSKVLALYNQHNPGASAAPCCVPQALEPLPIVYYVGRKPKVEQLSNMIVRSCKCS

Kd (TGFβ2): 0.52 nM
Kd (TGFβ1 (human)): 0.24 nM
Kd [2]: 7.6 nM
EC50 [3]: 0.182 nM
Substance: αPDL1/TXM/TGFβRII (N-810A); IL-15N72D:αPDL1/IL-15RαSu/Fc/TGFβRII fusion protein complex (from UniProt P40933 49-162) (Fc fusion)
maximal killing, ADCC against PD-L1-positive MDA-MB-231 breast tumor cells [1]: 30%
